Drawing on paper PMC6044951, this text covers Km and kcat for one protein.

Substrate in this series: O=c1ccn([C@@H]2O[C@H](CO[P@@](=O)(O)O[P@@](=O)(O)O[C@H]3O[C@H](CO)[C@@H](O)[C@H](O)[C@H]3O)[C@@H](O)[C@H]2O)c(=O)[nH]1
Kind of series: purified protein. To be noted: 30 °C, Michaelis-Menten fit.

B1: BcsA-BcsB (Cereibacter sphaeroides 2.4.1) (protein)
chain: MTVRAKARSPLRVVPVLLFLLWVALLVPFGLLAAAPVAPSAQGLIALSAVVLVALLKPFADKMVPRFLLLSAASMLVMRYWFWRLFETLPPPALDASFLFALLLFAVETFSISIFFLNGFLSADPTDRPFPRPLQPEELPTVDILVPSYNEPADMLSVTLAAAKNMIYPARLRTVVLCDDGGTDQRCMSPDPELAQKAQERRRELQQLCRELGVVYSTRERNEHAKAGNMSAALERLKGELVVVFDADHVPSRDFLARTVGYFVEDPDLFLVQTPHFFINPDPIQRNLALGDRCPPENEMFYGKIHRGLDRWGGAFFCGSAAVLRRRALDEAGGFAGETITEDAETALEIHSRGWKSLYIDRAMIAGLQPETFASFIQQRGRWATGMMQMLLLKNPLFRRGLGIAQRLCYLNSMSFWFFPLVRMMFLVAPLIYLFFGIEIFVATFEEVLAYMPGYLAVSFLVQNALFARQRWPLVSEVYEVAQAPYLARAIVTTLLRPRSARFAVTAKDETLSENYISPIYRPLLFTFLLCLSGVLATLVRWVAFPGDRSVLLVVGGWAVLNVLLVGFALRAVAEKQQRRAAPRVQMEVPAEAQIPAFGNRSLTATVLDASTSGVRLLVRLPGVGDPHPALEAGGLIQFQPKFPDAPQLERMVRGRIRSARREGGTVMVGVIFEAGQPIAVRETVAYLIFGESAHWRTMREATMRPIGLLHGMARILWMAAASLPKTARDFMDEPARRRRRHEEPKEKQAHLLAFGTDFSTEPDWAGELLDPTAQVSARPNTVAWGSN
What is called Km is the substrate concentration at which the rate is half of its maximum. For orientation: kcat means the number of substrate molecules converted per active site and unit of time at saturation. As to B1, the Km was found to be 0.34 ± 0.07 mM and the kcat amounted to 0.43 ± 0.17 s⁻¹.
